# According to patent US20250327097A1, “ORGANISMS PRODUCING LESS CROTONIC ACID” (Global Bioenergies, priority 2021, published 2025):
# Test system: 3-methylcrotonic acid
# Assay type: biochemical, Yersinia frederiksenii
# Set-up: key: “+” representing a low increase in activity; “++++” representing a high increase in activity
row,Molecule,Activity relative to WT
1,I283T-N285P-N287T-Q290E-S322T-N388M-K394R-E421F-C430A-i430aG-L432F-L434W-S436N-dG462 (protein) MFLKSLREQINLLKRQGDLRIINRPVDSYLEAAAIIRRSTETKAPVPLMTNIKGYPGCSIVGGLAALSSNPEYPLSRVAMSLGLSTTASAQSIVQYLIDGLKKTPYLPVEIDSNSAPCKQNILRGEDASLAHFPIPQVHQHDGNRYVNTWGVFIVESPDGQWCNWSIQRVQYLNDRQMIALVFPSQHISDIWEEWVKIGKPMPYALVQGCEPIVPYIAGLPLLERNVNEAEYIGALYGKGIEVVKCETHDLRVPASSEVVIEGYFAITREGVEGPFGEFAGYTPPETSLEPILSITAISWQDDPIWPVVAEGKPVDEYHTCTGIGDAAAIQNVLLTANLPVSFVWVPLYSACHLMIVSINRHWRQTHPDLTSEQLTKKVGDVIHQTRMSIKLPRIVVLDDDVDPADTESLLWALATRIHPFRKRYFYESAIFPWLNCYSEEERHNRKGKRVIIDALLPENHGAISSFDYAYPDDIKQRVLMHWETDFSHD,++++
2,L223Y-I283T-N285P-N287T-Q290E-S322T-N388M-K394R-K423G-C430A-i430aN-L432F-L434W-S436N-dG462 (protein) MFLKSLREQINLLKRQGDLRIINRPVDSYLEAAAIIRRSTETKAPVPLMTNIKGYPGCSIVGGLAALSSNPEYPLSRVAMSLGLSTTASAQSIVQYLIDGLKKTPYLPVEIDSNSAPCKQNILRGEDASLAHFPIPQVHQHDGNRYVNTWGVFIVESPDGQWCNWSIQRVQYLNDRQMIALVFPSQHISDIWEEWVKIGKPMPYALVQGCEPIVPYIAGLPLYERNVNEAEYIGALYGKGIEVVKCETHDLRVPASSEVVIEGYFAITREGVEGPFGEFAGYTPPETSLEPILSITAISWQDDPIWPVVAEGKPVDEYHTCTGIGDAAAIQNVLLTANLPVSFVWVPLYSACHLMIVSINRHWRQTHPDLTSEQLTKKVGDVIHQTRMSIKLPRIVVLDDDVDPADTESLLWALATRIHPERGRYFYESAIFPWLNCYSEEERHNRKGKRVIIDALLPENHGAISSFDYAYPDDIKQRVLMHWETDFSHD,++++
3,L223Y-I283T-N285P-N287T-Q290E-S322T-N388M-K394R-K423G-C430A-i430aG-L432F-L434W-S436N-dG462 (protein) MFLKSLREQINLLKRQGDLRIINRPVDSYLEAAAIIRRSTETKAPVPLMTNIKGYPGCSIVGGLAALSSNPEYPLSRVAMSLGLSTTASAQSIVQYLIDGLKKTPYLPVEIDSNSAPCKQNILRGEDASLAHFPIPQVHQHDGNRYVNTWGVFIVESPDGQWCNWSIQRVQYLNDRQMIALVFPSQHISDIWEEWVKIGKPMPYALVQGCEPIVPYIAGLPLYERNVNEAEYIGALYGKGIEVVKCETHDLRVPASSEVVIEGYFAITREGVEGPFGEFAGYTPPETSLEPILSITAISWQDDPIWPVVAEGKPVDEYHTCTGIGDAAAIQNVLLTANLPVSFVWVPLYSACHLMIVSINRHWRQTHPDLTSEQLTKKVGDVIHQTRMSIKLPRIVVLDDDVDPADTESLLWALATRIHPERGRYFYESAIFPWLNCYSEEERHNRKGKRVIIDALLPENHGAISSFDYAYPDDIKQRVLMHWETDFSHD,++++
4,L223Y-I283T-N285P-N287T-Q290E-S322T-N388M-K394R-i429aN-C430A-L432F-L434W-S436N-dG462 (protein) MFLKSLREQINLLKRQGDLRIINRPVDSYLEAAAIIRRSTETKAPVPLMTNIKGYPGCSIVGGLAALSSNPEYPLSRVAMSLGLSTTASAQSIVQYLIDGLKKTPYLPVEIDSNSAPCKQNILRGEDASLAHFPIPQVHQHDGNRYVNTWGVFIVESPDGQWCNWSIQRVQYLNDRQMIALVFPSQHISDIWEEWVKIGKPMPYALVQGCEPIVPYIAGLPLYERNVNEAEYIGALYGKGIEVVKCETHDLRVPASSEVVIEGYFAITREGVEGPFGEFAGYTPPETSLEPILSITAISWQDDPIWPVVAEGKPVDEYHTCTGIGDAAAIQNVLLTANLPVSFVWVPLYSACHLMIVSINRHWRQTHPDLTSEQLTKKVGDVIHQTRMSIKLPRIVVLDDDVDPADTESLLWALATRIHPERKRYFYESAIFPWLNCYSEEERHNRKGKRVIIDALLPENHGAISSFDYAYPDDIKQRVLMHWETDFSHD,++++
5,I283T-N285P-N287T-Q290E-S322T-N388M-K394R-E421F-C430A-L432F-L434W-S436N-i448aS-dG462 (protein) MFLKSLREQINLLKRQGDLRIINRPVDSYLEAAAIIRRSTETKAPVPLMTNIKGYPGCSIVGGLAALSSNPEYPLSRVAMSLGLSTTASAQSIVQYLIDGLKKTPYLPVEIDSNSAPCKQNILRGEDASLAHFPIPQVHQHDGNRYVNTWGVFIVESPDGQWCNWSIQRVQYLNDRQMIALVFPSQHISDIWEEWVKIGKPMPYALVQGCEPIVPYIAGLPLLERNVNEAEYIGALYGKGIEVVKCETHDLRVPASSEVVIEGYFAITREGVEGPFGEFAGYTPPETSLEPILSITAISWQDDPIWPVVAEGKPVDEYHTCTGIGDAAAIQNVLLTANLPVSFVWVPLYSACHLMIVSINRHWRQTHPDLTSEQLTKKVGDVIHQTRMSIKLPRIVVLDDDVDPADTESLLWALATRIHPFRKRYFYESAIFPWLNCYSEEERHNRKGKRVIIDALLPENHGAISSFDYAYPDDIKQRVLMHWETDFSHD,++++
6,L223Y-I283T-N285P-N287T-Q290E-S322T-N388M-K394R-K423G-C430A-L432F-L434W-S436N-i448aS-dG462 (protein) MFLKSLREQINLLKRQGDLRIINRPVDSYLEAAAIIRRSTETKAPVPLMTNIKGYPGCSIVGGLAALSSNPEYPLSRVAMSLGLSTTASAQSIVQYLIDGLKKTPYLPVEIDSNSAPCKQNILRGEDASLAHFPIPQVHQHDGNRYVNTWGVFIVESPDGQWCNWSIQRVQYLNDRQMIALVFPSQHISDIWEEWVKIGKPMPYALVQGCEPIVPYIAGLPLYERNVNEAEYIGALYGKGIEVVKCETHDLRVPASSEVVIEGYFAITREGVEGPFGEFAGYTPPETSLEPILSITAISWQDDPIWPVVAEGKPVDEYHTCTGIGDAAAIQNVLLTANLPVSFVWVPLYSACHLMIVSINRHWRQTHPDLTSEQLTKKVGDVIHQTRMSIKLPRIVVLDDDVDPADTESLLWALATRIHPERGRYFYESAIFPWLNCYSEEERHNRKGKRVIIDALLPENHGAISSFDYAYPDDIKQRVLMHWETDFSHD,++++
7,L223Y-I283T-N285P-N287T-Q290E-S322T-N388M-K394R-K423G-C430A-i430aL-L432F-L434W-S436N-dG462 (protein) MFLKSLREQINLLKRQGDLRIINRPVDSYLEAAAIIRRSTETKAPVPLMTNIKGYPGCSIVGGLAALSSNPEYPLSRVAMSLGLSTTASAQSIVQYLIDGLKKTPYLPVEIDSNSAPCKQNILRGEDASLAHFPIPQVHQHDGNRYVNTWGVFIVESPDGQWCNWSIQRVQYLNDRQMIALVFPSQHISDIWEEWVKIGKPMPYALVQGCEPIVPYIAGLPLYERNVNEAEYIGALYGKGIEVVKCETHDLRVPASSEVVIEGYFAITREGVEGPFGEFAGYTPPETSLEPILSITAISWQDDPIWPVVAEGKPVDEYHTCTGIGDAAAIQNVLLTANLPVSFVWVPLYSACHLMIVSINRHWRQTHPDLTSEQLTKKVGDVIHQTRMSIKLPRIVVLDDDVDPADTESLLWALATRIHPERGRYFYESAIFPWLNCYSEEERHNRKGKRVIIDALLPENHGAISSFDYAYPDDIKQRVLMHWETDFSHD,++++
8,I283T-N285P-N287T-Q290E-S322T-N388M-K394R-E421F-C430A-i430aL-L432F-L434W-S436N-dG462 (protein) MFLKSLREQINLLKRQGDLRIINRPVDSYLEAAAIIRRSTETKAPVPLMTNIKGYPGCSIVGGLAALSSNPEYPLSRVAMSLGLSTTASAQSIVQYLIDGLKKTPYLPVEIDSNSAPCKQNILRGEDASLAHFPIPQVHQHDGNRYVNTWGVFIVESPDGQWCNWSIQRVQYLNDRQMIALVFPSQHISDIWEEWVKIGKPMPYALVQGCEPIVPYIAGLPLLERNVNEAEYIGALYGKGIEVVKCETHDLRVPASSEVVIEGYFAITREGVEGPFGEFAGYTPPETSLEPILSITAISWQDDPIWPVVAEGKPVDEYHTCTGIGDAAAIQNVLLTANLPVSFVWVPLYSACHLMIVSINRHWRQTHPDLTSEQLTKKVGDVIHQTRMSIKLPRIVVLDDDVDPADTESLLWALATRIHPFRKRYFYESAIFPWLNCYSEEERHNRKGKRVIIDALLPENHGAISSFDYAYPDDIKQRVLMHWETDFSHD,++++
9,I283T-N285P-N287T-Q290E-S322T-N388M-K394R-E421F-C430A-i430aN-L432F-L434W-S436N-dG462 (protein) MFLKSLREQINLLKRQGDLRIINRPVDSYLEAAAIIRRSTETKAPVPLMTNIKGYPGCSIVGGLAALSSNPEYPLSRVAMSLGLSTTASAQSIVQYLIDGLKKTPYLPVEIDSNSAPCKQNILRGEDASLAHFPIPQVHQHDGNRYVNTWGVFIVESPDGQWCNWSIQRVQYLNDRQMIALVFPSQHISDIWEEWVKIGKPMPYALVQGCEPIVPYIAGLPLLERNVNEAEYIGALYGKGIEVVKCETHDLRVPASSEVVIEGYFAITREGVEGPFGEFAGYTPPETSLEPILSITAISWQDDPIWPVVAEGKPVDEYHTCTGIGDAAAIQNVLLTANLPVSFVWVPLYSACHLMIVSINRHWRQTHPDLTSEQLTKKVGDVIHQTRMSIKLPRIVVLDDDVDPADTESLLWALATRIHPFRKRYFYESAIFPWLNCYSEEERHNRKGKRVIIDALLPENHGAISSFDYAYPDDIKQRVLMHWETDFSHD,++++
10,L223Y-I283T-N285P-N287T-Q290E-S322T-N388M-K394R-E421F-K423G-C430A-L432F-L434W-S436N-dG462 (protein) MFLKSLREQINLLKRQGDLRIINRPVDSYLEAAAIIRRSTETKAPVPLMTNIKGYPGCSIVGGLAALSSNPEYPLSRVAMSLGLSTTASAQSIVQYLIDGLKKTPYLPVEIDSNSAPCKQNILRGEDASLAHFPIPQVHQHDGNRYVNTWGVFIVESPDGQWCNWSIQRVQYLNDRQMIALVFPSQHISDIWEEWVKIGKPMPYALVQGCEPIVPYIAGLPLYERNVNEAEYIGALYGKGIEVVKCETHDLRVPASSEVVIEGYFAITREGVEGPFGEFAGYTPPETSLEPILSITAISWQDDPIWPVVAEGKPVDEYHTCTGIGDAAAIQNVLLTANLPVSFVWVPLYSACHLMIVSINRHWRQTHPDLTSEQLTKKVGDVIHQTRMSIKLPRIVVLDDDVDPADTESLLWALATRIHPFRGRYFYESAIFPWLNCYSEEERHNRKGKRVIIDALLPENHGAISSFDYAYPDDIKQRVLMHWETDFSHD,++++
